Laboratory results: US20190194324A1 (published 2019)

Assays:
[1] = target: α-syn-biotin PFF (biotin-labelled α-synuclein pre-formed fibrils) (mouse, UniProt O55042 1-140); experiment: cell surface binding (SH-SY5Y)
[2] = target: T1, α-syn-biotin monomer (mouse, UniProt O55042 1-140); experiment: cell surface binding (SH-SY5Y)
[3] = target: T1, α-syn-biotin monomer; experiment: cell surface binding (SH-SY5Y); LAG3* (no Triton)

| Binder | Kd [1] | Kd [2] | Kd [3] |
| --- | --- | --- | --- |
| LAG3 (protein) MWEAQFLGLLFLQPLWVAPVKPLQPGAEVPVVWAQEGAPAQLPCSPTIPLQDLSLLRRAGVTWQHQPDSGPPAAAPGHPLAPGPHPAAPSSWGPRPRRYTVLSVGPGGLRSGRLPLQPRVQLDERGRQRGDFSLWLRPARRADAGEYRAAVHLRDRALSCRLRLRLGQASMTASPPGSLRASDWVILNCSFSRPDRPASVHWFRNRGQGRVPVRESPHHHLAESFLFLPQVSPMDSGPWGCILTYRDGFNVSIMYNLTVLGLEPPTPLTVYAGAGSRVGLPCRLPAGVGTRSFLTAKWTPPGGGPDLLVTGDNGDFTLRLEDVSQAQAGTYTCHIHLQEQQLNATVTLAIITVTPKSFGSPGSLGKLLCEVTPVSGQERFVWSSLDTPSQRSFSGPWLEAQEAQLLSQPWQCQLYQGERLLGAAVYFTELSSPGAQRSGRAPGALPAGHLLLFLILGVLSLLLLVTGAFGFHLWRRQWRPRRFSALEQGIHPPQAQSKIEELEQEPEPEPEPEPEPEPEPEPEQL | 77 nM | > 3000 nM |  |
| LAG3 overexpressed in transfected cells (SH-SY5Y; HEK293FT) (receptor) LQPGAEVPVVWAQEGAPAQLPCSPTIPLQDLSLLRRAGVTWQHQPDSGPPAAAPGHPLAPGPHPAAPSSWGPRPRRYTVLSVGPGGLRSGRLPLQPRVQLDERGRQRGDFSLWLRPARRADAGEYRAAVHLRDRALSCRLRLRLGQASMTASPPGSLRASDWVILNCSFSRPDRPASVHWFRNRGQGRVPVRESPHHHLAESFLFLPQVSPMDSGPWGCILTYRDGFNVSIMYNLTVLGLEPPTPLTVYAGAGSRVGLPCRLPAGVGTRSFLTAKWTPPGGGPDLLVTGDNGDFTLRLEDVSQAQAGTYTCHIHLQEQQLNATVTLAIITVTPKSFGSPGSLGKLLCEVTPVSGQERFVWSSLDTPSQRSFSGPWLEAQEAQLLSQPWQCQLYQGERLLGAAVYFTELSSPGAQRSGRAPGALPAGHLLLFLILGVLSLLLLVTGAFGFHLWRRQWRPRRFSALEQGIHPPQAQSKIEELEQEPEPEPEPEPEPEPEPEPEQL |  |  | > 3000 nM |
